Like-named read-outs stand apart in the source and are kept apart here.
Legend:
[1] = target: T1, human immunodeficiency virus-1 (HIV-1) envelope trimer (BG505 DS-SOSIP) (HIV-1 group M subtype A, isolate BG505, UniProt Q2N0S6, stabilised)
[2] = target: T1, human immunodeficiency virus-1 (HIV-1) …; test: BLI; BG505 DS-SOSIP binding to immobilized VHH9 nanobody; kinetic fit; details: both partners purified
[3] = target: T2, bivalent Nb30 (Nb30 fused to human IgG1 Fc) (nanomouse (mouse with camelid VHH genes)); test: BLI; details: both partners purified
T2 construct: also called Nb30 (bivalent)

[4] = target: T3, Nb12 trimer (three Nb12 units with GGGGS(x3) linkers, fused to human IgG1 Fc) (nanomouse (mouse with camelid VHH genes)); test: BLI; details: both partners purified
T3 construct: also called trivalent Nb12

T2 sequence (heavy, as listed by the source): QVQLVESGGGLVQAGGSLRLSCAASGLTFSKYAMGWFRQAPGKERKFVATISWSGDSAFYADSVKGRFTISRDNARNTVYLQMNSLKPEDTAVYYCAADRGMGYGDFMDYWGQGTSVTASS

B1: VHH9-2 (VHH)
VHH: QVKLEESGGGSVQAGGSLRLSCTAPGFTSNSCGMAWYRQAPGKEREFVSSISTDGTTSYADSVKGRFTISKDKAKDTVYLQMNSLKPEDTAMYSCKTYGPYCYFDVWGAGTTVTVSS
- binding result [1]: binds

B2: VHH9-3 (VHH)
VHH: QVKLEESGGGSVQAGGSLRLSCTAPGFTSNSCGMAWYRQAPGKEREFVSSISTDGTTSYADSVKGRFTISKDKAKDTVYLQMNSLKPEDTAMYSCKTYGPYCYFDVWGAGTTVTVSA
- binding result [1]: binds

B3: VHH9-1 (nanobody from nanomouse immunized with BG505 DS-SOSIP) (VHH)
VHH: EVHLVESGGGSVQAGGSLRLSCTTPGFTSNSCGMAWYRQAPGKEREFVSSISTDGTTSYADSVKGRFTISKDKAKDTVYLQMNSLKPEDTAMYSCKTYGPYCYFDVWGAGTTLTVSS
- binding result [2]: binds

B4: SARS-CoV RBD fused to the Fc region of human IgG1 (Fc fusion)
chain: not shown
- binding result [3]: binds
- binding result [4]: binds

From paper PMC8260353 (Nature, 2021)
